# Reference: patent EP3342782A1
# Tests used:
# [1] = molecular target: extracellular region of human V158 FcγRIIIa with C-terminal 6x His-tag and GST-tag (human) (UniProt P08637); test: SPR; fold vs WT
# [2] = molecular target: human FcγRIIIa on PBMCs expressing heterozygous V158/F158 FcγRIIIa (human) (UniProt P08637); test: cell-based or functional assay
Fold WT [1],ADCC log(EC50) [2],Substance
5.5 fold,–,E258H alemtuzumab (antibody)
1.77 fold,–,E258Y alemtuzumab (antibody)
384 fold,–,E272H alemtuzumab (antibody)
2.56 fold,–,E283L alemtuzumab (antibody)
5.66 fold,–,H268D alemtuzumab (antibody)
11.2 fold,–,I332D alemtuzumab (antibody)
22.4 fold,–,K246H alemtuzumab (antibody)
7.07 fold,–,K246Y alemtuzumab (antibody)
3.13 fold,–,K326E alemtuzumab (antibody)
1.41 fold,–,R255Y alemtuzumab (antibody)
–,0.49 log(ng/ml),S239D/I332E alemtuzumab (antibody)
3.28 fold,–,S239E alemtuzumab (antibody)
2.62 fold,–,S267E alemtuzumab (antibody)
1.86 fold,–,T260H alemtuzumab (antibody)
–,0.6 log(ng/ml),V264I/I332E alemtuzumab (antibody)
